Sequences and labels used below:
B6: G-CSFR(Ig-CRH)E design 134 (R41E_R141E_R167D), purified, tag cleaved (receptor)
chain: GSMGCGHISVSAPIVHLGDPITASCIIKQNCSHLDPEPQILWELGAELQPGGRQQRLSDGTQESIITLPHLNHTQAFLSCSLNWGNSLQILDQVELRAGYPPAIPHNLSCLMNLTTSSLICQWEPGPETHLPTSFTLKSFKSEGNCQTQGDSILDCVPKDGQSHCSIPDKHLLLYQNMGIWVQAENALGTSMSPQLCLDPMDVVKLEPPMLRTMDPSPEAAPPQAGCLQLSWEPWQPGLHINQKCELRHKPQRGEASWALVGPLPLEALQYELCGLLPATAYTLQIRCIRWPLPGHWSDWSPSLELRTTE
notes: also called Design 134 G-CSFR(Ig-CRH)E; design 137 G-CSFR(Ig-CRH)E

Assay [1] has as its target T1, WT G-CSFR(Ig-CRH), purified, tag cleaved (human, UniProt Q99062 26-331).
T1 construct: also called G-CSFRWT; wild type G-CSFR ECD
T1 chain: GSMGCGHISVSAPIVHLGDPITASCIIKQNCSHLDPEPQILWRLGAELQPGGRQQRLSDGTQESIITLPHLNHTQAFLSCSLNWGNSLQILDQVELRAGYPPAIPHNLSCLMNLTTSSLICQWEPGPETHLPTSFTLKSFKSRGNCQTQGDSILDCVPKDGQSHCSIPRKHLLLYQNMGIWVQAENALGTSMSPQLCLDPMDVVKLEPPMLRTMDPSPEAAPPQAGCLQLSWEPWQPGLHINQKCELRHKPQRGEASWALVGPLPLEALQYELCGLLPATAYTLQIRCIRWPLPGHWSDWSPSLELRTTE
Nature of the assay: SPR (Biacore T200).

Assay [2] concerns the target T2, G-CSFR(Ig-CRH)E design 9, purified, tag cleaved (human, UniProt Q99062 26-331).
T2 construct: SPR protein; also called Design 9 G-CSFR(Ig-CRH)E
T2 chain: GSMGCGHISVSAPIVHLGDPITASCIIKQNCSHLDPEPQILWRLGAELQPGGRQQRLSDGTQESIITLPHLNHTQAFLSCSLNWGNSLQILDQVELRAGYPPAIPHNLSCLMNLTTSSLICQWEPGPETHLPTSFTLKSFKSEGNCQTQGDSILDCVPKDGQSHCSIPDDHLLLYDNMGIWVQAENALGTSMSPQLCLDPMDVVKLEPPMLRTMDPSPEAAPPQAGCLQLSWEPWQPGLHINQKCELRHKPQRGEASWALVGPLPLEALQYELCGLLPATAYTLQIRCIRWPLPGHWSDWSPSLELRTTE
Kind of assay: SPR (Biacore T200), G-CSFR(Ig-CRH)E amine-coupled, G-CSFE injected; KD relative to WT:WT control (larger = weaker).
Experimental: (§1) The SPR binding assays were carried out on a Biacore T200 instrument (GE Healthcare, Mississauga, ON, Canada) with PBS-T (PBS+0.05% (v/v) Tween 20) running buffer at a temperature of 25° C. CMS Series S sensor chip, Biacore amine coupling kit (NHS, EDC and 1 M ethanolamine), and 10 mM sodium acetate buffers were all purchased from GE Healthcare. PBS running buffer with 0.05% Tween20 (PBS-T) was purchased from Teknova Inc. (Hollister, CA).
(§2) To determine binding affinity of G-CSFE to G-CSFRE the G-CSFRE mutant was captured by standard amine coupling as described by the manufacturer (GE LifeSciences). Briefly, immediately after EDC/NHS activation, a 5 μg/mL solution of G-CSFRE in 10 mM NaOAc, pH 5.0, was injected at a flow rate of 5 μL/min until a receptor density of ˜700-900 RU was reached. The remaining active groups were quenched by a 420 s injection of 1 M ethanolamine hydrochloride-NaOH pH 8.5 at 10 μL/min. Using single-cycle kinetics, six concentrations of a two-fold dilution series of the corresponding G-CSFE mutant starting at 200 nM with a blank buffer control were sequentially injected at 25 μL/min for 300s with a 1800s dissociation phase, resulting in a set of sensorgrams with a buffer blank reference. The same sample titration was also performed on a reference cell with no variants captured. The chip was regenerated to prepare for the next injection cycle by one pulse of 10 mM glycine/HCl, pH 2.0, for 30 s at 30 μL/min.
(§3) Double-referenced sensorgrams from duplicate or triplicate repeat injections were analyzed using Biacore™ T200 Evaluation Software v3.0 and fit to the 1:1 Langmuir binding model.

In assay [3] the target is T1, WT G-CSFR(Ig-CRH), purified, tag cleaved. Kind of assay: SPR (Biacore T200), WT G-CSFR(Ig-CRH) amine-coupled, G-CSFE injected; KD relative to WT:WT control (larger = weaker). Background: In SPR one partner is held on a chip, and binding of the other changes the refractive index at the surface.
The target of assay [4] is T3, WT G-CSF, purified, tag cleaved (human, UniProt P09919 31-206).
T3 construct: also called G-CSFWT
T3 sequence: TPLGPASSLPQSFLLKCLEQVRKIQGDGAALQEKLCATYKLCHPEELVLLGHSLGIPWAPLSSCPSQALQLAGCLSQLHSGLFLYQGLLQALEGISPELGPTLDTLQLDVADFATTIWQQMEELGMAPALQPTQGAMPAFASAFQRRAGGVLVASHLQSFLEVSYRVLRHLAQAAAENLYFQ
Kind of assay: SPR (Biacore T200).

The target in assay [5] is T4, G-CSFR(Ig-CRH)E design 30, purified, tag cleaved (human, UniProt Q99062 26-331).
T4 construct: also called Design 30 G-CSFR(Ig-CRH)E
T4 chain: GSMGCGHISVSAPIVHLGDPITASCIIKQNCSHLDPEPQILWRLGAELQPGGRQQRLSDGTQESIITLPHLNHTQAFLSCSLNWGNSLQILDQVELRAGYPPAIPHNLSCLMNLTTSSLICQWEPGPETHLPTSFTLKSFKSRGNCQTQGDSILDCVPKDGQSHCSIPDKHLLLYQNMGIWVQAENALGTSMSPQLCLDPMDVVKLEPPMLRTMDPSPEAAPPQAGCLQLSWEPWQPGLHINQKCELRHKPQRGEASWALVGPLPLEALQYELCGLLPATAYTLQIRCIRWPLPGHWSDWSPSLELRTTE
Nature of the assay: SPR (Biacore T200), G-CSFR(Ig-CRH)E amine-coupled, G-CSFE injected; KD relative to WT:WT control (larger = weaker).
Experimental: as §1, §2, §3

For assay [6], the target named is B6. Described as above.
Experimental: as §1, §2, §3

Results on twelve molecules are retold here after US20240115603A1 (Zymeworks, published 2024).

B1: G-CSFE design 9, purified, tag cleaved (ligand)
chain: TPLGPASSLPQSFLLKCLEQVRKIQGDGAALQEKLCATYKLCHPEELVLLGHSLGIPWAPLSSCPSQALQLAGCLSQLHSGLFLYQGLLQALEGISPELGPTLRTLQKDVARFATTIWRQMKELGMAPALQPTQGAMPAFASAFQRRAGGVLVASHLQSFLEVSYRVLRHLAQAAAENLYFQ
notes: also called Design 9 G-CSFE
Take B1: the “fold weaker KD (vs WT:WT)” value in assay [1] is not below 20 fold. Besides, the “KD fold change (vs WT:WT)” value was 1.2 fold in assay [2] and 79 fold in assay [3].

B2: G-CSFR(Ig-CRH)E design 130, purified, tag cleaved (receptor)
chain: GSMGCGHISVSAPIVHLGDPITASCIIKQNCSHLDPEPQILWELGAELQPGGRQQRLSDGTQESIITLPHLNHTQAFLSCSLNWGNSLQILDQVELRAGYPPAIPHNLSCLMNLTTSSLICQWEPGPETHLPTSFTLKSFKSRGNCQTQGDSILDCVPKDGQSHCSIPDKHLLLYQNMGIWVQAENALGTSMSPQLCLDPMDVVKLEPPMLRTMDPSPEAAPPQAGCLQLSWEPWQPGLHINQKCELRHKPQRGEASWALVGPLPLEALQYELCGLLPATAYTLQIRCIRWPLPGHWSDWSPSLELRTTE
notes: SPR protein; also called Design 130 G-CSFR(Ig-CRH)E
With B2, the binding result in assay [4] is “no binding”.

B3: G-CSFE design 117, purified, tag cleaved (ligand)
chain: TPLGPASSLPQSFLLKCLEQVRKIQGDGAALQEKLCATYKLCHPERLVLLGHSLGIPWAPLSSCPSQALQLAGCLSQLHSGLFLYQGLLQALEGISPELGPTLDTLQLDVADFATTIWQQMRRLGMAPALQPTQGAMPAFASAFQRRAGGVLVASHLQSFLEVSYRVLRHLAQAAAENLYFQ
notes: also called Design 117 G-CSFE
Regarding B3, in assay [3], the “KD fold change (vs WT:WT)” value stood at 3.4 fold.

B4: G-CSFR(Ig-CRH)E design 401, purified, tag cleaved (receptor)
chain: GSMGCGHISVSAPIVHLGDPITASCIIKQNCSHLDPEPQILWELGAELQPGGRQQRLSDGTQESIITLPHLNHTQAFLSCSLNWGNSLQILDQVELRAGYPPAIPHNLSCLMNLTTSSLICQWEPGPETHLPTSFTLKSFKSRGNCQTQGDSILDCVPKDGQSHCSIPDKHLLLYQNMGIWVQAENALGTSMSPQLCLDPMDVVKLEPPMLRTMDPSPEAAPPQAGCLQLSWEPWQPGLHINQKCELRHKPQRGEASWALVGPLPLEALQYELCGLLPATAYTLQIRCIDWPLPGHWSDWSPSLELRTTE
notes: SPR protein; also called Design 401 G-CSFR(Ig-CRH)E
For B4, in assay [4], the binding result was “no binding”.

B5: G-CSFE design 30, purified, tag cleaved (ligand)
chain: TPLGPASSLPQSFLLKCLEQVRKIQGDGAALQEKLCATYKLCHPEELVLLGHSLGIPWAPLSSCPSQALQLAGCLSQLHSGLFLYQGLLQALEGISPELGPTLDTLQKDVARFATTIWQQMEELGMAPALQPTQGAMPAFASAFQRRAGGVLVASHLQSFLEVSYRVLRHLAQAAAENLYFQ
notes: also called Design 30 G-CSFE
On to B5, for which the “fold weaker KD (vs WT:WT)” value in assay [1] was not below 20 fold. Moreover, the entries for the “KD fold change (vs WT:WT)” value in assay [5] and in assay [3] were 11 fold and 20 fold, respectively.
On to B6, for which, in assay [4], the binding result is “no binding”.

B7: G-CSFR(Ig-CRH)E design 307, purified, tag cleaved (receptor)
chain: GSMGCGHISVSAPIVHLGDPITASCIIKQNCSHLDPEPQILWELGAELQPGGRQQRLSDGTQESIITLPHLNHTQAFLSCSLNWGNSLQILDQVELRAGYPPAIPHNLSCLMNLTTSSLICQWEPGPETHLPTSFTLKSFKSRGNCQTQGDSILDCVPKDGQSHCSIPRKHLLLYQNMGIWVQAENALGTSMSPQLCLKPMKVVKLEPPMLRTMDPSPEAAPPQAGCLQLSWEPWQPGLHINQKCELRHKPQRGEASWALVGPLPLEALQYELCGLLPATAYTLQIRCIEWPLPGHWSDWSPSLELRTTE
notes: SPR protein; also called Design 307 G-CSFR(Ig-CRH)E
On to B7, for which the binding result in assay [4] is recorded as “no binding”.

B8: G-CSFR(Ig-CRH)E design 402, purified, tag cleaved (receptor)
chain: GSMGCGHISVSAPIVHLGDPITASCIIKQNCSHLDPEPQILWELGAELQPGGRQQRLSDGTQESIITLPHLNHTQAFLSCSLNWGNSLQILDQVELRAGYPPAIPHNLSCLMNLTTSSLICQWEPGPETHLPTSFTLKSFKSRGNCQTQGDSILDCVPKDGQSHCSIPEKHLLLYENMGIWVQAENALGTSMSPQLCLDPMDVVKLEPPMLRTMDPSPEAAPPQAGCLQLSWEPWQPGLHINQKCELRHKPQRGEASWALVGPLPLEALQYELCGLLPATAYTLQIRCIEWPLPGHWSDWSPSLELRTTE
notes: SPR protein; also called Design 402 G-CSFR(Ig-CRH)E
Regarding B8, the binding result in assay [4] is on record as “no binding”.

B9: G-CSFR(Ig-CRH)E design 304, purified, tag cleaved (receptor)
chain: GSMGCGHISVSAPIVHLGDPITASCIIKQNCSHLDPEPQILWELGAELQPGGRQQRLSDGTQESIITLPHLNHTQAFLSCSLNWGNSLQILDQVKLRAGYPPAIPHNLSCLMNLTTSSLICQWEPGPETHLPTSFTLKSFKSRGNCQTQGDSILDCVPKDGQSHCSIPDKHLLLYQNMGIWVQAENALGTSMSPQLCLDPMDVVKLEPPMLRTMDPSPEAAPPQAGCLQLSWEPWQPGLHINQKCELRHKPQRGEASWALVGPLPLEALQYELCGLLPATAYTLQIRCIRWPLPGHWSDWSPSLELRTTE
notes: SPR protein; also called Design 304 G-CSFR(Ig-CRH)E
As for B9, the binding result in assay [4] is listed as “no binding”.

B10: G-CSFE design 134, purified, tag cleaved (ligand)
chain: TPLGPASSLPQSFLLKCLEQVRKIQGDGAALQEKLCATYKLCHPERLVLLGHSLGIPWAPLSSCPSQALQLAGCLSQLHSGLFLYQGLLQALEGISPELGPTLDTLQKDVARFATTIWQQMRRLGMAPALQPTQGAMPAFASAFQRRAGGVLVASHLQSFLEVSYRVLRHLAQAAAENLYFQ
notes: also called Design #134 G-CSFE
With B10, the “fold weaker affinity (vs WT:WT)” value in assay [1] is approximately 500 fold. Further, the “KD fold change (vs WT:WT)” value in assay [6] was 1 fold; in assay [3] it was 465 fold.

B11: G-CSFR(Ig-CRH)E design 303, purified, tag cleaved (receptor)
chain: GSMGCGHISVSAPIVHLGDPITASCIIKQNCSHLDPEPQILWRLGAELQPGGRQQRLSDGTQESIITLPHLNHTQAFLSCSLNWGNSLQILDQVKLRAGYPPAIPHNLSCLMNLTTSSLICQWEPGPETHLPTSFTLKSFKSRGNCQTQGDSILDCVPKDGQSHCSIPDKHLLLYQNMGIWVQAENALGTSMSPQLCLDPMDVVKLEPPMLRTMDPSPEAAPPQAGCLQLSWEPWQPGLHINQKCELRHKPQRGEASWALVGPLPLEALQYELCGLLPATAYTLQIRCIRWPLPGHWSDWSPSLELRTTE
notes: SPR protein; also called Design 303 G-CSFR(Ig-CRH)E
As to B11, in assay [4], the binding result is reported as “no binding”.

B12: G-CSFR(Ig-CRH)E design 300, purified, tag cleaved (receptor)
chain: GSMGCGHISVSAPIVHLGDPITASCIIKQNCSHLDPEPQILWRLGAELQPGGRQQRLSDGTQESIITLPHLNHTQAKLSCSLNWGNSLQILDKVELRAGYPPAIPHNLSCLMNLTTSSLICQWEPGPETHLPTSFTLKSFKSRGNCQTQGDSILDCVPKDGQSHCSIPDKHLLLYQNMGIWVQAENALGTSMSPQLCLDPMDVVKLEPPMLRTMDPSPEAAPPQAGCLQLSWEPWQPGLHINQKCELRHKPQRGEASWALVGPLPLEALQYELCGLLPATAYTLQIRCIRWPLPGHWSDWSPSLELRTTE
notes: SPR protein; also called Design 300 G-CSFR(Ig-CRH)E
Take B12: the binding result in assay [4] is listed as “no binding”.
